From the supplement of paper PMC9170038

Tested on: MS2 coat protein
Assay: apparent KD of MS2 coat protein; designed switch direction (-1 OFF switch, 1 ON switch): 1; higher = weaker reporter binding
Outline: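 Designed RNA switches with common flanks were made on Illumina chips by stalled E. coli RNA polymerase. Titration with SNAP-549-labelled MS2 coat protein doubled from 0.7 or 1.5 nM up to 3 µM. Apparent KD is each design's median over clusters after curve-fitting normalised fluorescence.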

[1] = input ligand: microRNA oligo, concentration not stated
[2] = Eterna round: R95, input ligand: microRNA oligo, concentration not stated
[3] = Eterna round: R95, input ligand: FMN 200 uM
[4] = Eterna round: R95, input ligand: none

Sequence: GAGUGGUGGAGAGGAUAUACAUUGUUAUUCACUGUAGAAGGUUCUAACAUGAGGAUCACCCAUGUAGGACUAUUCCUGAGAGUU [Parity 55 - Jieux - Same State NG 1] (Eterna round: R96, puzzle: Same State NG 1)
- apparent KD of MS2 coat protein (input ligand: FMN 200 uM): 13.1 nM
- apparent KD of MS2 coat protein [1]: 10.9 nM
- apparent KD of MS2 coat protein (input ligand: none): 14.2 nM

Sequence: GAGUUACAUGAGGAUCACCCAUGUUGUUUUGGAUAAGGAUAUAUGGUAGGAAGAGGAAUGAUAGAAGGUAUUAGGG [JR_SS1_Sub063] (Eterna round: R96, puzzle: Same State 1)
- apparent KD of MS2 coat protein (input ligand: FMN 200 uM): 41.6 nM
- apparent KD of MS2 coat protein [1]: 26.8 nM
- apparent KD of MS2 coat protein (input ligand: none): 35.3 nM

Sequence: GAGUUACAUGAGGAUCACCCAUGUUGUUUUGGAUAAGGAUAUAUGGUAGGAAGAGGAAUGAUAGAAGGUAUUAGGG [JR_SS1_Sub063] (puzzle: Same State 1)
- apparent KD of MS2 coat protein [2]: 25.3 nM

Sequence: GAUAGACAUGAGGAUCACCCAUGUGACAAAACCACAGGAUAUCACACAGGAGUAACUGCGUGAGAAGGGUGAGACU [Edatinti] (puzzle: Same State 1)
- apparent KD of MS2 coat protein [3]: 109 nM
- apparent KD of MS2 coat protein [2]: 13.4 nM
- apparent KD of MS2 coat protein [4]: 32.4 nM

Sequence: GCACAUGCACAUGAGGAUCACCCAUGUCCCGCGCCCAUUAGGGCGCGGUGGCCGCAAGUUUUUUGCUCGUCUUAUAA [BIOPHYS241_ElaineNg_2] (puzzle: Sensor for hsa-mir-208a version 2)
- apparent KD of MS2 coat protein [3]: 29.4 nM
- apparent KD of MS2 coat protein [2]: 21.3 nM
- apparent KD of MS2 coat protein [4]: 38.8 nM

Sequence: GCAGGACGAUAAAACAUCUCACAUGAGGAUCACCCAUGUCGUGAGGAUAUGGAUCCUAAUUGGAUCCAGAAGGCAUGGUCCUGC [Fiskers NG3ss - 24] (Eterna round: R96, puzzle: Same State NG 3)
- apparent KD of MS2 coat protein (input ligand: FMN 200 uM): 13.2 nM
- apparent KD of MS2 coat protein [1]: 13.1 nM
- apparent KD of MS2 coat protein (input ligand: none): 20.9 nM

Sequence: GCAGGGCCGGGCCCUGCAGACAUGAGGAUCACCCAUGUAACACAGGAUAUGACUGGGAUACCUGGUUAGAAGGGUGCGAAAGAA [Ustivetice] (Eterna round: R96, puzzle: Same State NG 3)
- apparent KD of MS2 coat protein (input ligand: FMN 200 uM): 299 nM
- apparent KD of MS2 coat protein [1]: 645 nM
- apparent KD of MS2 coat protein (input ligand: none): 57.4 nM

Sequence: GCCAACAUGAGGAUCACCCAUGUCCGGAAGUGAAUUCAAAGUGAGGAUAUGGAGAGACCGAAAAUCCAGAAGGCACGCACAUGC [Eternabot solution 10] (Eterna round: R96, puzzle: Same State NG 3)
- apparent KD of MS2 coat protein (input ligand: FMN 200 uM): 1500 nM
- apparent KD of MS2 coat protein [1]: 475 nM
- apparent KD of MS2 coat protein (input ligand: none): 1260 nM

Sequence: GCCAACUUAUGAGGAUAUGGCACCUUAUUGGUGCCAGAAGGCAUGUCAAUUGACAUGAGGAUCACCCAUGUAUUAUAGUUGGCA [Fiskers NG1ss - 21] (Eterna round: R96, puzzle: Same State NG 1)
- apparent KD of MS2 coat protein [1]: 326 nM

Sequence: GCCACACAUGAGGAUCACCCAUGUAAUUACAUGGGAGGAUAUCAGUGCUCGAAAGAGCACUGAGAAGGCCUGUGGC [SS1 - Omei A v3] (puzzle: Same State 1)
- apparent KD of MS2 coat protein [3]: 134 nM
- apparent KD of MS2 coat protein [2]: 89.6 nM
- apparent KD of MS2 coat protein [4]: 67.8 nM

Sequence: GCCAUCCAGUGAGGAUAUGGCACCGAAACGGUGCCAGAAGGCAUGUCAAUUGACAUGAGGAUCACCCAUGUAUUAUGGAUGGCA [Mat - Same State NG 1 - JL mod - D85] (Eterna round: R96, puzzle: Same State NG 1)
- apparent KD of MS2 coat protein (input ligand: FMN 200 uM): 102 nM
- apparent KD of MS2 coat protein [1]: 694 nM
- apparent KD of MS2 coat protein (input ligand: none): 695 nM

Sequence: GCCAUCGCAUGAGGAUAUGGCACCGUUUCGGUGCCAGAAGGCAUGUCAAUUGACAUGAGGAUCACCCAUGUAUUAUUGAUGGCA [JL Fiskers NG1ss - 33 mod 7] (Eterna round: R96, puzzle: Same State NG 1)
- apparent KD of MS2 coat protein (input ligand: FMN 200 uM): 55.6 nM
- apparent KD of MS2 coat protein [1]: 448 nM
- apparent KD of MS2 coat protein (input ligand: none): 860 nM

Sequence: GCCAUCGCAUGAGGAUAUGGCACCGUUUCGGUGCCAGAAGGCAUGUCAUAAGACAUGAGGAUCACCCAUGUAGUUAAGAUGGCA [JL Fiskers NG1ss - 33 mod 8] (Eterna round: R96, puzzle: Same State NG 1)
- apparent KD of MS2 coat protein (input ligand: FMN 200 uM): 31.4 nM
- apparent KD of MS2 coat protein [1]: 521 nM
- apparent KD of MS2 coat protein (input ligand: none): 751 nM

Sequence: GCCAUCGUAUGAGGAUAUGGCACCGAAACGGUGCCAGAAGGCAUGUCAAUAGACAUGAGGAUCACCCAUGUAUUAUCGAUGGCA [Mat - Same State NG 1 - JL mod - D90] (Eterna round: R96, puzzle: Same State NG 1)
- apparent KD of MS2 coat protein [1]: 278 nM

Sequence: GCCGGACAUGAGGAUCACCCAUGUCCUCACUAUACAGGAUAUCGGGUAGGAUCCCUACGGCGAGAAGGGUAUAAAA [Inarquat] (puzzle: Same State 1)
- apparent KD of MS2 coat protein [3]: 34.2 nM
- apparent KD of MS2 coat protein [2]: 32.2 nM
- apparent KD of MS2 coat protein [4]: 22.1 nM

Sequence: GCGAAAGCGGUAGGAUAUCUAGGAUAUGGGAAGGACUAAGUCUGGAGGUCACCUCACCCAGAAGGAGAGAAGGACACCGAAAGG [pwkr ssNG2 2FMN + F9.1] (Eterna round: R96, puzzle: Same State NG 2)
- apparent KD of MS2 coat protein (input ligand: FMN 200 uM): 534 nM
- apparent KD of MS2 coat protein [1]: 204 nM
- apparent KD of MS2 coat protein (input ligand: none): 42.6 nM

Sequence: GCGAAGAGGUAAGGAUAUGCAUGGCGUAGACAUGAGGAUCACCCAUGUAGGAGACGAAUUAGAAGGGAGAAGGUACCAGGACGC [AK SSNG2-V2-17.1] (Eterna round: R96, puzzle: Same State NG 2)
- apparent KD of MS2 coat protein (input ligand: FMN 200 uM): 939 nM
- apparent KD of MS2 coat protein [1]: 699 nM
- apparent KD of MS2 coat protein (input ligand: none): 746 nM

Sequence: GCGGAACCUGACAUGAGGAUCACCCAUGUUCCGGAAACGGCACAGGAUAUCUGUCCGAAAAGGUCAGAGAAGGGUGAAAACCGC [Fiskers NG3ss - 96] (Eterna round: R96, puzzle: Same State NG 3)
- apparent KD of MS2 coat protein (input ligand: FMN 200 uM): 269 nM
- apparent KD of MS2 coat protein [1]: 714 nM
- apparent KD of MS2 coat protein (input ligand: none): 719 nM

Sequence: GCGUUUAACGUAGGAUAUCGACCUACAUGAGGAUCACCCAUGUCUUUGUAAAGUUUUUUUAAUUACGAGAAGGACGUUUUGCAU [JR_SSNG2_Sub071] (Eterna round: R96, puzzle: Same State NG 2)
- apparent KD of MS2 coat protein (input ligand: FMN 200 uM): 40.3 nM
- apparent KD of MS2 coat protein [1]: 89.6 nM
- apparent KD of MS2 coat protein (input ligand: none): 107 nM

Sequence: GCUACCAUUGAAGCCAACAUGAGGAUCACCCAUGUAUGUUGGUAGGAUAUCGUUUGCAAAGCAAACGAGAAGGGCUAAGGUAGC [Mat - Same State NG 3 - JL Mod - D79] (Eterna round: R96, puzzle: Same State NG 3)
- apparent KD of MS2 coat protein (input ligand: FMN 200 uM): 83.5 nM
- apparent KD of MS2 coat protein [1]: 42.1 nM
- apparent KD of MS2 coat protein (input ligand: none): 74.4 nM

Sequence: GCUACGGACGUAGGAUAUGUAGGAUAUGGCGAGAGCUAAGCUUGGAAGUCACUUCAGCCAGAAGGACAGAAGGACGCCGUGAGG [pwkr ssNG2 2FMN + F9.17] (Eterna round: R96, puzzle: Same State NG 2)
- apparent KD of MS2 coat protein (input ligand: FMN 200 uM): 355 nM
- apparent KD of MS2 coat protein [1]: 1.34 nM
- apparent KD of MS2 coat protein (input ligand: none): 29.5 nM

Sequence: GCUAGAAAUAAAGCCAACAUGAGGAUCACCCAUGUAUGUUGGUAGGAUAUCGUAUGCAAAGCAUACGAGAAGGGCCAAACUAGC [Mat - Same State NG 3 - JL Mod - D21] (Eterna round: R96, puzzle: Same State NG 3)
- apparent KD of MS2 coat protein (input ligand: FMN 200 uM): 72.3 nM
- apparent KD of MS2 coat protein [1]: 65.4 nM
- apparent KD of MS2 coat protein (input ligand: none): 122 nM

Sequence: GCUAGAAUUAAAGCCAACAUGAGGAUCACCCAUGUAUGUUGGCAGGAUAUCGUUUGCAAAGCAAACGAGAAGGGCCAUACUAGC [Mat - Same State NG 3 - JL Mod - D22] (Eterna round: R96, puzzle: Same State NG 3)
- apparent KD of MS2 coat protein (input ligand: FMN 200 uM): 33.4 nM
- apparent KD of MS2 coat protein [1]: 87.5 nM
- apparent KD of MS2 coat protein (input ligand: none): 118 nM

Sequence: GCUAGAAUUAAAGCCAACAUGAGGAUCACCCAUGUAUGUUGGUAGGAUAUCGUUUGCAAAGCAAACGAGAAGGGCUAAACUAGC [Mat - Same State NG 3 - JL Mod - D16] (Eterna round: R96, puzzle: Same State NG 3)
- apparent KD of MS2 coat protein (input ligand: FMN 200 uM): 97.9 nM
- apparent KD of MS2 coat protein [1]: 80.2 nM
- apparent KD of MS2 coat protein (input ligand: none): 93.8 nM

Sequence: GCUAGAAUUAAUGCCAACAUGAGGAUCACCCAUGUAUGUUGGCAGGAUAUCGUUUGCUUUGCAAACGAGAAGGGCUAAACUAGC [JL SSNG3 1.03] (Eterna round: R96, puzzle: Same State NG 3)
- apparent KD of MS2 coat protein (input ligand: FMN 200 uM): 217 nM
- apparent KD of MS2 coat protein [1]: 170 nM
- apparent KD of MS2 coat protein (input ligand: none): 217 nM

Sequence: GCUAGAAUUAAUGCUAACAUGAGGAUCACCCAUGUAUGUUGGCAGGAUAUCGUUUGCAAAGCAAACGAGAAGGGCCAUACUAGC [Mat - Same State NG 3 - JL Mod - D25] (Eterna round: R96, puzzle: Same State NG 3)
- apparent KD of MS2 coat protein (input ligand: FMN 200 uM): 8.26 nM
- apparent KD of MS2 coat protein [1]: 27.3 nM
- apparent KD of MS2 coat protein (input ligand: none): 21.3 nM

Sequence: GCUAGGAAUUAAGCCAACAUGAGGAUCACCCAUGUAUGUUGGUAGGAUAUCGUUUGCUUUGCAAACGAGAAGGGCUAACCUAGC [JL SSNG3 1.25] (Eterna round: R96, puzzle: Same State NG 3)
- apparent KD of MS2 coat protein (input ligand: FMN 200 uM): 51 nM
- apparent KD of MS2 coat protein [1]: 50.4 nM
- apparent KD of MS2 coat protein (input ligand: none): 58.1 nM
